Read-outs that look alike come from different tables or passages of the source.
Tests used:
[1] = target: T1, folate receptor 1 (FOLR1) (human, UniProt P15328 25-234); experiment: flow cytometry, T47D cells
[2] = target: T1, folate receptor 1 (FOLR1); experiment: flow cytometry, T47D cells; remark: listed apart in the source

T1 sequence (P15328 25-234): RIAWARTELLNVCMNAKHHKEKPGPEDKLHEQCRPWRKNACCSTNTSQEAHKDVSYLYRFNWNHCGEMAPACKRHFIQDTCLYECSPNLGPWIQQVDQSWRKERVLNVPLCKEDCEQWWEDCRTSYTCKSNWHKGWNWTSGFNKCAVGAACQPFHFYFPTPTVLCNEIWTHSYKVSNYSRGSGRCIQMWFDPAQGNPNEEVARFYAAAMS

B1: huMOV19-14 conjugate (antibody, V domains shown)
VH: QVQLVQSGAEVVKPGASVKISCKASGYTFTGYFMNWVKQSPGQSLEWIGRIHPYDGDTFYNQKFQGKATLTVDKSSNTAHMELLSLTSEDFAVYYCTRYDGSRAMDYWGQGTTVTVSS
VL: DIVLTQSPLSLAVSLGQPAIISCKASQSVSFAGTSLMHWYHQKPGQQPRLLIYRASNLEAGVPDRFSGSGSKTDFTLTISPVEAEDAATYYCQQSREYPYTFGGGTKLEIKR
Q: How did the EC50 [1] turn out when B1 was run?
A: The EC50 was 0.379 nM.

B2: huMOV19-90 conjugate (antibody, V domains shown)
VH: QVQLVQSGAEVVKPGASVKISCKASGYTFTGYFMNWVKQSPGQSLEWIGRIHPYDGDTFYNQKFQGKATLTVDKSSNTAHMELLSLTSEDFAVYYCTRYDGSRAMDYWGQGTTVTVSS
VL: DIVLTQSPLSLAVSLGQPAIISCKASQSVSFAGTSLMHWYHQKPGQQPRLLIYRASNLEAGVPDRFSGSGSKTDFTLTISPVEAEDAATYYCQQSREYPYTFGGGTKLEIKR
Q: B2 was tested. Which EC50 [2] did it give?
A: Its EC50 is 0.371 nM.

— US20160082114A1 (published 2016)
